The values below come from article PMC10391610, “Survivin prevents the polycomb repressor complex 2 from methylating histone 3 lysine 27” (iScience, 2023).

Holding throughout (test): peptide or protein array; PEPperCHIP microarray of 15 amino acid peptides with 10 amino acid overlap, immobilised; survivin at 1 μg/ml (53.5 nM monomer) in incubation buffer; stained with 6x His Tag Antibody DyLight680; LI-COR Odyssey read-out
Assay [1] addresses microarray peptides covering JARID2 170–194 (human).
Assay [2] has as its target microarray peptides covering EED 128–152 (human).
Assay [3] has as its target microarray peptides covering SUZ12 573–597 (human).
Assay [4] concerns the target microarray peptides covering EZH2 172–211 (human).
Setting [5] is: scale: % of maximum fluorescence intensity units.

Chain of survivin (His-tagged, from pHIS8) (O15392 whole entry): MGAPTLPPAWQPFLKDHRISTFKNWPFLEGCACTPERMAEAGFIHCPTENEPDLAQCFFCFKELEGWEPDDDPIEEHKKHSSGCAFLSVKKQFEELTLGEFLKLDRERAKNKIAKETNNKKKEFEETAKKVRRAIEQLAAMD

With “survivin (His-tagged, from pHIS8) (from UniProt O15392 1-142) (natural protein)”, the Integrated FI (units of the maximum FI per peptide) in assay [1] amounted to 3; in assay [2] it was 0.31; in assay [3], 0.6; in assay [4], 4.28. Further, the Average FI (%) stood at 100 in assay [1] (setting [5]), 10 in assay [2] (setting [5]), 20 in assay [3] (setting [5]) and 71 in assay [4] (setting [5]).
